This is an account of results in US20180305414A1.

The target in test [1] is Fab prepared by papain treatment of human IgG (human). Briefly: binding capacity; Capto L resin, 20 mg/mL human Fab, acid elution, A280.
In test [2] the target is human IgG (available from the Chemo-Sero-Therapeutic Research Institute) (human). Briefly: binding capacity; Capto L resin, human IgG, acid elution, A280.
Test [3] shares this target. In words: binding capacity; binder immobilised on agarose gel, human IgG, acid elution, A280.
Test [4] has the same target. In words: binding capacity against Capto L.
For test [5], the target named is Fab prepared by papain treatment of human IgG (human). In words: binding capacity against Capto L.
For test [6] the target is unchanged. In words: binding capacity; binder immobilised on agarose gel, 20 mg/mL human Fab, acid elution, A280.
Test [7] has as its target human IgG (available from the Chemo-Sero-Therapeutic Research Institute) (human). In words: binding capacity; binder immobilised on agarose gel, human IgG.

In test [1], “Capto L (GE Healthcare KK) having a tetramer (Protein L) with the native sequence immobilized thereon” yielded a Fab Binding Capacity of 30.9 mg/mL gel. The same molecule returned an IgG Binding Capacity in test [2] of 43.6 mg/mL gel.

B1: tetrameric multidomain polypeptide PL-424 (four linked modified domains of PL-024) (designed binder)
chain: AQHDEAGLALETPEEPREEVTIRVNLIFADGRTQTAEFRGTFEEATAEAYRYADLLARVNGEYTADLEDGGYTINIRFAGALETPEEPREEVTIRVNLIFADGRTQTAEFRGTFEEATAEAYRYADLLARVNGEYTADLEDGGYTINIRFAGALETPEEPREEVTIRVNLIFADGRTQTAEFRGTFEEATAEAYRYADLLARVNGEYTADLEDGGYTINIRFAGALETPEEPREEVTIRVNLIFADGRTQTAEFRGTFEEATAEAYRYADLLARVNGEYTADLEDGGYTINIRFAGALPSKSKKILKEAKKLNKAQAPKKKK
In turn, B1 came in with an IgG Binding Capacity in test [3] of 91.6 mg/mL gel. In addition, the amount of bound IgG relative to Capto L in test [4] came to 2.2 times. This molecule gave an amount of bound Fab fragment relative to Capto L in test [5] of 2.4 times. The Fab Binding Capacity in test [6] was 72.4 mg/mL gel. This molecule displayed a human IgG binding capacity relative to PL-024 in test [7] of 144%.

B2: hexameric multidomain polypeptide PL-624 (six linked modified domains of PL-024) (designed binder)
chain: AQHDEAGLALETPEEPREEVTIRVNLIFADGRTQTAEFRGTFEEATAEAYRYADLLARVNGEYTADLEDGGYTINIRFAGALETPEEPREEVTIRVNLIFADGRTQTAEFRGTFEEATAEAYRYADLLARVNGEYTADLEDGGYTINIRFAGALETPEEPREEVTIRVNLIFADGRTQTAEFRGTFEEATAEAYRYADLLARVNGEYTADLEDGGYTINIRFAGALETPEEPREEVTIRVNLIFADGRTQTAEFRGTFEEATAEAYRYADLLARVNGEYTADLEDGGYTINIRFAGALETPEEPREEVTIRVNLIFADGRTQTAEFRGTFEEATAEAYRYADLLARVNGEYTADLEDGGYTINIRFAGALETPEEPREEVTIRVNLIFADGRTQTAEFRGTFEEATAEAYRYADLLARVNGEYTADLEDGGYTINIRFAGALPSKSKKILKEAKKLNKAQAPKKKK
Molecule B2 came in with an IgG Binding Capacity in test [3] of 95.8 mg/mL gel. For the same molecule, the amount of bound IgG relative to Capto L in test [4] was determined as 2.2 times. The molecule further came in with an amount of bound Fab fragment relative to Capto L in test [5] of 2.4 times. In test [6], this molecule yielded a Fab Binding Capacity of 75.9 mg/mL gel. The molecule further yielded a human IgG binding capacity relative to PL-024 in test [7] of 151%.
